Results reported in the domain aggregation screens of Martell et al. (2025).

Test: soluble fraction after stress (log2 fold change); higher = more stays soluble; pooled small domains, quantitative proteomics
Settings: stress: 75 degC
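Also: 20 min heating vs room temperature control held 20 min.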

Question: For “HMEEKNNIIVSYIEDKISELEKASMYVPNENKEKLIMAFKNRNEDIDVIKTRIDTIFNNSVAAYKENME”, which “soluble fraction (log2)” value is on record?
Answer: 0.557

Question: With “HMEEKTMNLPPSAKLVYKILSYEGNLTQKEIINMTYLPERTVRHALELLLGKRLITRQAYLNDARQSVYG” as the sequence, how does the “soluble fraction (log2)” value read?
Answer: -1.72

Question: Which “soluble fraction (log2)” value does the source give for “HMEEKVEVPNLSGKTYQQAKALLESYGLVAAKGGEEESEEPVGKVSRWSSAGKSVKKGTTITVWISGGI” here?
Answer: -0.298

Question: With “HMEEKWKENYEKIKLFISINNRYPSVYSEDKEEGLIGSFMSNQKRRKNKLSKEKMALFEALPNWIWE” as the sequence, how does the “soluble fraction (log2)” value read?
Answer: -2.53

Question: For “HMEELNFYPNPAYKYINLDYVGLKEIYTVLGKKLLETYDTRINISNLNSGIYLIKFKNQALRFVK”, which “soluble fraction (log2)” value is on record?
Answer: 0.0302

Question: Which “soluble fraction (log2)” value does the source give for “HMEELVGFEEKVRSILTSPLSAKEIKEKTHIEIDTRKLSKMLSELSFIKTEKKNGKKIFRLVS” here?
Answer: -0.243

Question: Which “soluble fraction (log2)” value does the source give for “HMEEMADILKTRIDTLDLSTRTLNALTGANIRTVGGIARKKKEDLLELAGMGEKGIQEIKKVLGGFGITL” here?
Answer: -0.157

Question: Which “soluble fraction (log2)” value does the source give for “HMEEPEYELLRQAVLALPEKYRLPIHLYYYEEYSVREIAEILQRKESAVQTQLQRGREKIRRSLTEKGVS” here?
Answer: -0.874

Question: For “HMEEPLIISIDSNGAVYLEVDSFKDQSIEMSSLREIIEKIILANPDIQVVVRGDSEVKYEKVMDLMSILQS”, which “soluble fraction (log2)” value is on record?
Answer: -1.58

Question: With “HMEEQGLPLVIISDGKVLAQNLTLRSLDRAWLQDQLTQHGHSKPEQVFLLTVDERGAVYYVPKE” as the sequence, how does the “soluble fraction (log2)” value read?
Answer: -0.556

Question: Which “soluble fraction (log2)” value does the source give for “HMEEQQIQLIQMKMEKDHKYVGKKISELRIKNMLIVLIKRGDEDIIPRAEVKIKEGDILVLSAQSYEG” here?
Answer: -0.424

Question: With “HMEETAFEKLSPLQKLRALGKPLTMINMRDGSQIAGSVQRSDDKFLYLDTGDGIAKLPVEEILRRTPM” as the sequence, how does the “soluble fraction (log2)” value read?
Answer: 0.149

Question: For “HMEETIVFGQQKAINALSSDAGLSSNELDSYLKKRYKRPLYQLSKSEGAELIQGFQDGSLSKASIMDYVS”, which “soluble fraction (log2)” value is on record?
Answer: 0.19

Question: For “HMEEVIEVEGKITAVLPSTMFRAELENGHQVLAHISGKLRKHFIKITVGDIVKMEMSTQDLQKARIV”, which “soluble fraction (log2)” value is on record?
Answer: -0.411

Question: With “HMEEVRFPLKKEILLWALKEAQVDEDEVFRKFTNLEKWINGEKHPTFKQIESLANYLKIPFGYMFLEKPPI” as the sequence, how does the “soluble fraction (log2)” value read?
Answer: -1.02

Question: For “HMEEVVIPDLAGLTEEEATKVLMAKELKLKVSGSQHSDIEKGLIISQDPPAGEKGAKNSQVAVVTSSG”, which “soluble fraction (log2)” value is on record?
Answer: 0.0827

Question: For “HMEFDFGAILSGNGGSELYSGYSAEQKAALVEAAKADGMDVEFGADGSTTFKDKDGSEVVQKADGTWTV”, which “soluble fraction (log2)” value is on record?
Answer: 0.235

Question: With “HMEFDVELTSFEEAKKLKVIKEVKDVTGLSLGEAKDLVMGAPKAIKTGVSKEEAEAIKTQIEAAGAVVTI” as the sequence, how does the “soluble fraction (log2)” value read?
Answer: 0.101

Question: With “HMEFDYIVKVPDVRNKKIEDAGKILIDLGLKYTTESDYITQDLKVIDQFPLPGTEVSKGSIIDIYLEEDFK” as the sequence, how does the “soluble fraction (log2)” value read?
Answer: -0.473

Question: With “HMEFEKYKYHYIFDDVLGLRIVWDRGKEHFSYFVNEELAEKSRKSDKDALEVMFYLEHKRWPEEGELENY” as the sequence, how does the “soluble fraction (log2)” value read?
Answer: -1.67

Question: With “HMEFEYTVVVPETRGKTIGEAGRILLDLELKYTSESMNIREDSKVIDQFPSPGTEVSKGSIIDLYLDE” as the sequence, how does the “soluble fraction (log2)” value read?
Answer: -0.137

Question: With “HMEFQISLAAARVNANMTQEDTARAMKVSKTTIVNWEKGKVIPGIPEVEMMSRLYGIPQDYIFLP” as the sequence, how does the “soluble fraction (log2)” value read?
Answer: -3.08

Question: For “HMEFSYLEEIGHEKGDLIKGLQLIQQKEGYVSDDAVRAVAENFGMSPAEVEGVLTFYAQFKR”, which “soluble fraction (log2)” value is on record?
Answer: -0.162

Question: For “HMEGFKSVYFLTTPSGAEISDRSVGDIISKTPSLVSAQEGTEFEFNLKGYQPSFYMINKRSPDRVFVELIP”, which “soluble fraction (log2)” value is on record?
Answer: -0.545

Question: For “HMEGLEKDDGGYYFEKDNGERARNEWVYVEYEGKGYWYYMTDYGYPLRSAITPDGYKVNSNGHWIDEGN”, which “soluble fraction (log2)” value is on record?
Answer: -0.644

Question: For “HMEGLESVVPDLRGKSLKSAAIAAGLSGFALSPEGSGIVYKQSPAPGGRYLKGTLIAVWLRT”, which “soluble fraction (log2)” value is on record?
Answer: -1.95

Question: For “HMEGMQATVTQITDEGITVRYVMNGQMVTRTLTSDEVAFVNRGQAVSDLAGAYRVGQTVWIY”, which “soluble fraction (log2)” value is on record?
Answer: -0.446

Question: Which “soluble fraction (log2)” value does the source give for “HMEGNAFASTGDPEADILDITAVHPMRRDAVEELLARSGAEWSLVEGMLRDGKITMAPWEGEEFFIRS” here?
Answer: 0.105

Question: With “HMEGNWGLWAKVPNRFAALTTDKDSALRRFKSKEDGEAWMASHGLKPERFDVLEIPADYKPA” as the sequence, how does the “soluble fraction (log2)” value read?
Answer: 0.435

Question: Which “soluble fraction (log2)” value does the source give for “HMEGRHFRILYILLNNERVTAPELAEEFGVSVRTIYRDIDTMSAAGIPIYMQGGRKGGIYLLEGY” here?
Answer: -1.11

Question: For “HMEGSRASMDGQVPGKTSYLEWLARQPAQRQDQVLGAERGRLFRAGEIDLADMFTDKGEWISLERLKQLS”, which “soluble fraction (log2)” value is on record?
Answer: 0.309

Question: For “HMEGVSNLIVSVTRVKVTVDLSQAKVYLSIFPSEQAAFYLNALQQNRFQLKHDLSQLLKNQLRRIPTLQF”, which “soluble fraction (log2)” value is on record?
Answer: 0.296

Question: With “HMEHDYGLSGREREVLELMVQGLVKKEIADRLALSYHTVDNHLRSIYAKLQVHTRGGAVAKALSEHLVPP” as the sequence, how does the “soluble fraction (log2)” value read?
Answer: -0.0631

Question: With “HMEHGQWLSEAQGASLAADWLARRRGVLPLNARRHLSGLSDQIARQIEGGLSREAGLYTAHEMMESLDP” as the sequence, how does the “soluble fraction (log2)” value read?
Answer: -0.427

Question: Which “soluble fraction (log2)” value does the source give for “HMEHNDPEVERTMFQGLEALKLQLFEKAFGHFSLLIKLAPDYAEAWNKRATVLYLMGRFKESESDVMRTLE” here?
Answer: 0.16

Question: With “HMEHQLLHMEKTIFEEIADDYPQLNHTKIRNVLAAFLFTNDDVFKRIADLSGGERGRVSLAKLMLSDA” as the sequence, how does the “soluble fraction (log2)” value read?
Answer: -0.159

Question: With “HMEHTPYLTEREADVVRLLVSGLDTAQIAQRLGIKTATVTAHKKHIFLKIGVRNTTQLVAWALIR” as the sequence, how does the “soluble fraction (log2)” value read?
Answer: -2.3

Question: With “HMEIELHNLALNIKEFRKKNKLSQAELAEKLGVARTTIGYYERAEVEPNIYTLVQLSKLMNRSIDSLLGL” as the sequence, how does the “soluble fraction (log2)” value read?
Answer: -2.64
